In test [1] the target is T1, human DLL3 (immobilized human DLL3 or h293-hDLL3 cells) (human, UniProt Q9NYJ7 27-492, limits assumed).
T1 construct: the sentence says 'immobilized human DLL3 or h293-hDLL3 cells'
T1 sequence: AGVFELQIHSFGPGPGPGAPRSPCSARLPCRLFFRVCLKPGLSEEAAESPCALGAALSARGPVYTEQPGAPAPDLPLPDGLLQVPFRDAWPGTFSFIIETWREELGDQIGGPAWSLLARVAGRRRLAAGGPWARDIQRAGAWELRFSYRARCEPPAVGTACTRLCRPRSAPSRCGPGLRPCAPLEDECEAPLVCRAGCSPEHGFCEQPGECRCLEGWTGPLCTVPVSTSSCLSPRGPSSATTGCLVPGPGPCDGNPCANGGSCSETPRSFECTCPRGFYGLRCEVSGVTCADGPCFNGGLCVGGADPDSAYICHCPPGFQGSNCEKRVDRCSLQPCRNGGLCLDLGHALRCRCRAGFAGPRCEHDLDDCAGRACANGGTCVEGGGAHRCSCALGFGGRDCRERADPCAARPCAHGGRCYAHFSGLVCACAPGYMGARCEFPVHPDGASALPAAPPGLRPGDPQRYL
In words: hybridoma screening on immobilized human DLL3 or on h293-hDLL3 cells.

For test [2], the target named is T2, DLL3 extracellular domain (amino acids 27-466) displayed on yeast (human, UniProt Q9NYJ7 27-466).
T2 construct: Yeast surface display construct with HA tag; also called DLL3 ECD; wild type DLL3 ECD
T2 sequence: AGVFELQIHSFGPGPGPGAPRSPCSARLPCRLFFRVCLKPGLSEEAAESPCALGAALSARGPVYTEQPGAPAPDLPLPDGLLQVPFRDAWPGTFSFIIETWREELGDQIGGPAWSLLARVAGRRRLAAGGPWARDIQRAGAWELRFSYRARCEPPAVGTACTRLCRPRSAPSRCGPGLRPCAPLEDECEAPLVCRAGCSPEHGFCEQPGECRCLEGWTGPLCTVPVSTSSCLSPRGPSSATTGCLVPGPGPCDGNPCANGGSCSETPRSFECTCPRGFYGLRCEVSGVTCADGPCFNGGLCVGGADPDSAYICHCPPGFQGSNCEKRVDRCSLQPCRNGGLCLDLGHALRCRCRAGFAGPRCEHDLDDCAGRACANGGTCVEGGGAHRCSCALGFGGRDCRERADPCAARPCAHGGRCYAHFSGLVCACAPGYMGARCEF
In words: fine epitope mapping. On the procedure: To test for binding to a particular construct, 200,000 induced yeast cells expressing the desired construct were washed twice in PBS+1 mg/mL BSA (PBSA), and incubated in 50 μL of PBSA with biotinylated anti-HA clone 3F10 (Roche Diagnostics) at 0.1 μg/mL and either 50 nM purified antibody or 1:2 dilution of unpurified supernatant from hybridomas cultured for 7 days. Cells were incubated for 90 minutes on ice, followed by two washes in PBSA. Cells were then incubated in 50 μL PBSA with the appropriate secondary antibodies: for murine antibodies, Alexa 488 conjugated streptavidin, and Alexa 647 conjugated goat anti mouse (Life Technologies) were added at 1 μg/mL each; and for humanized or chimeric antibodies, Alexa 647 conjugated streptavidin (Life Technologies) and R-phycoerythrin conjugated goat anti human (Jackson Immunoresearch) were added at 1 μg/mL each. After a twenty minute incubation on ice, cells were washed twice with PBSA and analyzed on a FACS Canto II. Antibodies that bound to DLL3-DLL1 chimera were designated as binding to the N-terminal region+DSL. Antibodies that bound specifically to an epitope present on a particular EGF-like domain were designated as binding to its respective domain (FIG. 2.)
Alternatively, a yeast display method (Chao et al., 2007, PMID: 17406305) was used to map the epitopes of selected antibodies. Libraries of DLL3 ECD mutants were generated with error prone PCR using nucleotide analogues 8-oxo-2′deoxyguanosine-5′-triphosphate and 2′-deoxy-p-nucleoside-5′triphosphate (TriLink Bio) for a target mutagenesis rate of one amino acid mutation per clone. These were transformed into a yeast display format. Using the technique described above for domain-level mapping, the library was stained for HA and antibody binding at 50 nM. […] These clones were re-grown, and subjected to another round of FACS sorting for loss of binding to the target antibody. Using the Zymoprep Yeast Plasmid Miniprep kit (Zymo Research), individual ECD clones were isolated and sequenced. […]

B1: SC16.124 (antibody, V domains shown)
VH: EVQLQQSGPELVKPGASVKMSCKASGYTFTSYVMHWVKQKPGQGLEWIGYINPYNDGTKYNEKFKGKATLTSDKSSSTAYMELSSLTSEDSAVYYCARGALYYGNYLGYFDVWGAGTTVTVSS
VL: DIQMTQSPASQSASLGESVTITCLASQTIGTWLAWYQQKPGKSPQLLISAATSLADGVPSRFSGSGSGTKFSFKISSLQAEDFVSYYCQQLYSTPWTFGGGTKLEIK
notes: murine mAb; variable regions only
Turning to B1, the binding result in test [1] is reported as “binds”.

B2: SC16.132 (antibody, V domains shown)
VH: QVQLKESGPGLVAPSQSLSITCTVSGFSLTDYGVSWIRQPPGKGLEWLGVVWGGGSTYYNSALKSRLSITKDNSKSQVFLKMNSLQTDDTAMYYCAKQRGQYGAYWGQGTLVTVSA
VL: DIQMTQSPASQSASLGESVTITCLASQTIGTWLAWYQQKPGKSPQLLIYAATSLADGVPSRFSGSGSGTKFSFKISSLQAEDFVSYYCQQLYSTPWTFGGGTKLEIK
notes: as for B1
As to B2, the binding result in test [1] is recorded as “binds”.

B3: SC16.138 (antibody, V domains shown)
VH: QVQLKESGPGLVAPSQSLSITCTVSGFSLTDYGVSWIRQPPGKGLEWLGVVWGGGSTYYNSALKSRLSISKDNSKSQVFLKMNSLQTDDTAMYYCAKQRGQYGAYWGQGTLVTVSA
VL: DIQMTQSPASQSASLGESVTITCLASQTIGTWLAWYQQKPGKSPQLLIYSATSLADGVPSRFSGSGSGTKFSFKISSLQAEDFVSYYCQQLYSTPWTFGGGTKLEIK
notes: as for B1
Turning to B3, in test [1], the binding result is on record as “binds”.

B4: SC16.129 (antibody, V domains shown)
VH: QVQLKESGPGLVAPSQSLSITCTVSGFSLTDYGVSWIRQPPGKGLEWLGVIWGGGSTYYNSALKSRLSISKDNSKSQVFLELNSLQTDDTAIYYCAKHYGHYAAYWGQGTLVTVSA
VL: DIQMTQSPASQSASLGESVTITCLASQTIGTWLAWYQQKPGKSPQLLIYAATSLADGVPSRFSGSGSGTKFSFKISSLQAEDFVSYYCQQLYSTPYTFGGGTKLEIK
notes: as for B1
In the case of B4, the binding result in test [1] is “binds”.

B5: SC16.140 (antibody, V domains shown)
VH: QVQLQQSGPELVRPGASVKMSCKASGYTFTSYWMHWVKQRPGQGLEWIGMIDPSNSETRLNQKFKDKATLNVDKSSNTAYMQLSSLTSEDSAVYYCAVMDYYFDYWGQGTTLTVSS
VL: DIVLTQSLASLAVSLGQRATISCRASKSVSTSGYSYMHWYQQKPGQPPKLLIYLASNLESGVPARFSGSGSGTDFTLNIHPVEDEDAATYYCQHSRELPFTFGGGTKLEIK
notes: as for B1
On to B5, for which, in test [1], the binding result is reported as “binds”.

B6: SC16.34 (antibody, V domains shown)
VH: QIQLVQSGPELKRPGETVKISCKASGYTFTNYGMNWVKQAPGKGLKWMGWINTYTGDPTYADDFKGRFAFSLETSASTAYLQINNLKNEDTATYFCARIGGNSPSDYWGQGTSLTVSS
VL: SIVMTQTPKFLLVSAGDRVTITCKASQSVSNDVAWYQQKPGQSPKLLIYYASNRYSGVPDRFTGSGYGTDFTFTISTVQAEDLAVYFCQQDYSSPWTFGGGTKLEIK
notes: as for B1
With B6, the binding result in test [1] and in test [2] was “binds” throughout.

B7: SC16.133 (antibody, V domains shown)
VH: QVQLKESGPGLVAPSQSLSITCTVSGFSLTNYAVHWVRQSPGKGLEWLGVIWSDGSTDYNAAFISRLSISKDNSKSQVFFKMNSLQADDTAMYYCARKKGGWFPWFAYWGQGTLVTVSA
VL: SIVMTQTPKFLLVSAGDRVTITCKASQSVSNDVAWYQQKPGQSPKLLIYCASNRYTGVPDRFTGSGYGTDFTFTISTVQAEDLAVYFCQQDYSSPLTFGAGTKLELK
notes: as for B1
With B7, the binding result in test [1] is reported as “binds”.

B8: SC16.122 (antibody, V domains shown)
VH: EVQLVESGGGLVKPGGSLKLSCAASGFTFSDYYMFWVRQTPEKRLEWVATISDGGSYTYFPDSVKGRFTISRDNAQNNLYLQMSSLKSEDTAMYYCARAGTLYAMDYWGQGTSVTVSS
VL: DIVMTQSQKFMSTSVGDRVSVTCKASQNVGTNVAWYQQKPGQSPKVLIYSASYRYSGVPDRFTGSGSGTDFTLTISNVQSEDLAEFFCQQYNSYPLTFGGGTKLEIK
notes: as for B1
For B8, the binding result in test [1] is recorded as “binds”.

B9: SC16.123 (antibody, V domains shown)
VH: QVALKESGPGILQPSQTLSLTCSFSGFSLSTSGMGVGWIRQPSGKGLEWLAHIWWDDVKRYNPALKSRLTISKDTSSSQVFLKIASVDTADTATYYCARMEDYGSSSYFDFWGHGTTLTVSS
VL: QIVLTQSPAIMSASLGERVTMTCTASSSVSSSYLHWYQQKPGSSPKLWIYSTSNLASGVPARFSGSGSGTSYSLTISSMETEDAATYYCHQYHRSPFTFGSGTKLEIK
notes: as for B1
For B9, in test [1], the binding result is listed as “binds”.

B10: SC16.130 (antibody, V domains shown)
VH: EVQLQQSGPELVKPGASVKMSCKASGYTFTSYVMHWVKQKPGQGLEWIGYINPYNDGTEYNEKFKGKATLTSDKSSSTAYMELSSLTSEDSAVYYCARGVYDGYSYFDYWGQGTTLTVSS
VL: DIQLTQSPASLSASVGETVTITCRASGSIHNYLAWYQQKQGKSPQLLVYNAKTLVDGVPSRFSGSGSGTQYSLKINSLQPEDFGYYYCQHFWTTPWTFGGGTKLEIK
notes: as for B1
With B10, the binding result in test [1] is on record as “binds”.

B11: SC16.136 (antibody, V domains shown)
VH: EVQLQQSGPELVKPGASVKMSCKASGYTFTSYVMHWVKQKPGQGLEWIGYINPYNDGTKYNEKFKGKATLTSDKSSSTAYMELSSLTSEDSAVYYCARDRSGYEDYYGMDYWGQGTSVTVSS
VL: DIQMTQSPASLSASVGETVTITCRASGNIHNYLAWYQQKQGKSPHLLVYNAKTLADGVPSRFSGSGSGTQYSLKINSLQPEDFGSYYCQHFWSTPWTFGGGTKLEIK
notes: as for B1
B11: the binding result in test [1] was “binds”.

B12: SC16.137 (antibody, V domains shown)
VH: EVQLVESGGDLVKPGGSLKLSCAASGFTFSSYGMSWVRQTPDKRLEWVATISSGGSYTYYPDSVKGRFTISRDNAKNTLYLQMSSLKSEDTAMYYCARRRADAMDYWGQGTSVTVSS
VL: QIVLTQSPAIMSASLGEEITLTCSASSSVSYMHWYQQKSGTSPKLLIYSTSNLASGVPSRFSGSGSGTFYSLTISSVEAEDAADYYCHQWSSYHTFGGGTKLEIKR
notes: as for B1
As to B12, in test [1], the binding result is on record as “binds”.

B13: SC16.131 (antibody, V domains shown)
VH: QVQLKESGPGLVAPSQSLSITCTVSGFSLTNYGVHWVRQPPGKGLEWLGVIWAGGITNYNSALMSRLSISEDNSKSQVFLKMNSLQTDDTAMYYCARNLGPYAMDYWGQGTSVTVSS
VL: DIQMNQSPSSLSASLGDTITITCHVSQNINVWLSWYQQKPGNIPKLLIQKASNLHTGVPSRFSGSGSGTGFTLTISSLQPEDIATYYCQQGQSYPFTFGSGTKLEIK
notes: as for B1
Take B13: in test [1], the binding result is reported as “binds”.

B14: SC16.135 (antibody, V domains shown)
VH: QVQLQQSGAELVRPGTSVKVSCKASGYAFTNYLIEWVKQRPGQGLEWIGVINPGSGGTNSNEKFKAKATLTADKSSSTAYMQLSSLTSADSAVYFCARSDYDYAFYAMDYWGQGTSVTVSS
VL: DIKMTQSPSSMYASLGERVTITCKASQDINRYLSWFQQKPGKSPKTLIYRANRLVDGVPSRFSGSGSGQDYSLTISSLEYEDMGIYYCLQYDEFPFTFGSGTKLEIK
notes: as for B1
B14: in test [1], the binding result is on record as “binds”.

B15: SC16.141 (antibody, V domains shown)
VH: QVQLKQSGPGLVAPSQSLFITCTVSGFSLTSYEINWVRQPPGKGLEWLGVIWTGGSTNYNSALISRLSISKDNSKSLVFLKMNSLQTDDTAIYYCVRGVYAMDYWGQGTSVTVSS
VL: DIKMTQSPSSMYASLGERVTITCKASQDINSYLSWFQQKPGKSPKTLIYRANRLVDGVPSRFSGSGSGQDYSLTISSLEYEDMGIYYCLQYDEFPFTFGSGTKLEIK
notes: as for B1
Take B15: the binding result in test [1] was “binds”.

For the origin of these results see US20180044415A1 (AbbVie / Abbott, published 2018).
